Reference: patent US6348311B1, “ATM kinase modulation for screening and therapies” (St. Jude Childre's Research Hospital, priority 1999, dated 2002)
Where a SMILES comes first, the peptide text is derived from it. Where no end group is shown, it is not given here. [ ]: non-standard residue; d: D form. Nle = CCCC[C@H](N)C(=O)O

Columns and labels:
[1] = tested on: p53 phosphoserine 15; experiment: p53 Ser15 phosphorylation in lymphoblasts (immunoprecipitation and immunoblot); type: cell-based, human; conditions: ALLN 90 min
Description: Posttranslational modification of p53 on Ser^15 in response to ionizing radiation. Monoclonal antibodies against a chemically synthesized p53 phosphoserine-15 peptide (amino acids 9-22) were used to immunoblot synthetic peptides (1×, 50 μg) consisting of the first 24 amino acids of p53 with (1-24^S15-P) or without (1-24) phosphoserine 15. Normal WT (2184) or AT (1526) lymphoblasts were untreated or treated with 5 Gy IR (IR) or 20 mM ALLN for 90 min. p53 was immunoprecipitated, subjected to SDS-PAGE (7.5% gel), transferred to nitrocellulose, and immunoblotted with the monoclonal antibody to phosphoserine 15 p53 (upper panel). Blots were then stripped and immunoblotted with antibodies to p53 (lower panel).
Normal (2184) and AT (1526) EBV immortalized human lymphoblasts were irradiated with a ^137Cs source or treated with 20 mm ALLN (Sigma) for 90 min. Cells were then harvested, lysed, and p53 was immunoprecipitated as described (Siliciano et al., Genes Dev., 11:3471, 1997). Immunoprecipitates were resolved by non-reducing SDS-PAGE, transferred to nitrocellulose and immunoblotted with monoclonal antibody to phosphoserine 15. Blots were stripped and reprobed with p53-specific monoclonal antibodies (Ab-2 and Ab-6).

[2] = target: T1, ATM kinase (Homo sapiens, UniProt Q13315); experiment: In vitro kinase assay, ATM with GST-peptide / GST-fusion substrates; type: biochemical; conditions: GST-peptide substrate; relative to the p53ser15 site;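 also: immunoprecipitated ATM incubated with [γ-32P]ATP at 30 °C for 20 min, substrates resolved by SDS-PAGE and radiolabel incorporation quantified by PhosphorImager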
T1 construct: The full-length cDNA encoding NH2-terminal, FLAG-tagged wild-type ATM; made in house; host or cells: 293T cells, transient transfection with pcDNA-FLAG-ATMwt, anti-FLAG M2 immunoprecipitate on beads

[3] = target: T2, ATR (Homo sapiens, UniProt Q13535); experiment: In vitro kinase assay, ATR with GST-peptide / GST-fusion substrates; type: biochemical; conditions: GST-peptide substrate; relative to the p53ser15 site
T2 construct: made in house; host or cells: 293T cells, transient transfection with pBJF-FRPwt, anti-FLAG M2 immunoprecipitate
Description: (§1) FIGS. 1A, 1B, and 1C. Phosphorylation of GST-p53 mutant peptides (amino acids 9-21) by ATM, ATR, and DNA-PK in vitro. In vitro kinase assays with immunoprecipitated, transfected flag-tagged ATM (A) or ATR (B) or purified DNA-PK (C) were performed with GST-p53 peptides containing the amino acid substitutions indicated. The amount of 32P-labeled GST-peptides was quantitated with a PhosphorImager and was normalized for each of the kinases to the level of phosphorylation of wild-type GST-p53.
(§2) FIGS. 2A, 2B, and 2C. Phosphorylation of candidate targets of by ATM, ATR and DNA-PK in vitro. GST-peptides containing the putative target sequences were used as substrates for the kinase assay.
Transfection and Kinase Activity Assays. 293T cells were transiently transfected with 10 μg of either pcDNA-FLAG-ATMwt, pcDNA-FLAG-ATMkd, pBJF-FRPwt or pBJF-FRPkd (Cliby et al., EMBO J., 17:159, 1998) using calcium phosphate and harvested two days later. Cells were lysed through sonication in TGN buffer [50 mM Tris (pH 7.5), 50 mM glycerophosphate, 150 mM NaCl, 10% glycerol, 1% Tween 20, 1 mM NaF, 1 mM NaVO4, 1 mM PMSF, […] Pepstatin A, 5 μg/ml leupeptin, 10 μg/ml Aprotinin and 1 mM DTT] as described (Brunn et al., Science, 277:99-101,1997). After centrifugation at 13,000 ×g, 2 mg of extract were incubated with mouse IgG and protein A/G sepharose beads (Calbiochem). FLAG-tagged proteins were then immunoprecipitated with anti-FLAG M2 monoclonal antibody (Eastman Kodak Company) and protein A/G sepharose beads. Immunoprecipitates were washed twice with TGN buffer, once with 100 mM Tris (pH 7.5) plus 0.5 M LiCl, and twice with kinase buffer [10 mM Hepes (pH 7.5), 50 mM glycerophosphate, 50 mM NaCl, 10 mM MgCl2, 10 mM MnCl2, 5 μM ATP, and 1 mM DTT]. Kinase reactions were initiated by resuspending washed beads in 30 μl of kinase buffer containing 10 μCi [γ-^32P]ATP and 1 μg GSTp531-101 and incubated for 30 minutes at 30° C. Proteins were electrophoretically separated by SDS-polyacrylamide gel electrophoresis, transferred to nitrocellulose, and analyzed on a PhosphorImager. FLAG-tagged proteins and GSTp531-101 were subjected to immunoblotting with either anti-FLAG M2 antibody or monoclonal antibodies directed towards the NH2-terminus of p53 (Ab-2 and Ab-6, Calbiochem) as described (Siliciano et al., Genes Dev., 11:3471, 1997).
Phosphorylation of Ser^15 of p53 by ATM and ATR/FRP1 in vitro. […] Proteins from each reaction were separated by SDS polyacrylamide gel electrophoresis (7% gel), transferred to nitrocellulose, and analyzed either on a PhosphorImager or by immunoblotting. Amounts of FLAG-tagged ATM or ATR in each kinase reaction were measured by immunoblotting with anti-FLAG M2 (top panel) and amount of [γ^32P]phosphate incorporated into ATM or ATR during the reaction (lower panel). […] An upper immunoreactive band represents phosphorylated GSTp53 fusion protein. The same exposures were used for ATM, ATR/FRP1 and corresponding substrate proteins.
(§3) Plasmids and GST-fusion protein production. For GST fusion peptide expression vectors, complementary oligonucleotides encoding desired peptides (14 amino acids) were cloned into the BamHI/SmaI site of pGEX-2T (Pharmacia). The constructs were confirmed by restriction enzyme digests and DNA sequencing. To construct the larger GST-p95 (327-391) protein fragment, p95 DNA encoding amino acids 327-391 was amplified by PCR with Pfu polymerase using the following primers: 5′ sense,
In vitro kinase assays and immunoprecipitation. […] Cleared supernatants were immunoprecipitated with anti-Flag M2 antibody and protein A/G agarose, the beads were washed with TGN buffer followed by TGN buffer plus 0.5 M LiCl, and two washes with kinase buffer [20 mM HEPES (pH 7.5), 50 mM NaCl, 10 mM MgCl2, 1 mM dithiothreitol (DTT) and 10 mM MnCl2]. […] ATP and […] of GST-fusion substrate (GST-p53:1-101), in varying concentration of Mn^2+. […]

[4] = target: DNA-PK (Homo sapiens, UniProt P78527); experiment: In vitro kinase assay, purified DNA-PK with GST-peptide / GST-fusion substrates; type: biochemical; conditions: GST-peptide substrate; relative to the p53ser15 site
Description: as §1, §2, §3
In vitro kinase assays and immunoprecipitation. […] Cleared supernatants were immunoprecipitated with anti-Flag M2 antibody and protein A/G agarose, the beads were washed with TGN buffer followed by TGN buffer plus 0.5 M LiCl, and two washes with kinase buffer [20 mM HEPES (pH 7.5), 50 mM NaCl, 10 mM MgCl2, 1 mM dithiothreitol (DTT) and 10 mM MnCl2]. […] ATP and […] of GST-fusion substrate (GST-p53:1-101), in varying concentration of Mn^2+. The kinase reaction was conducted at 30° C. for 20 min and stopped by the addition of SDS-PAGE loading buffer. Proteins were separated on SDS-polyacrylamide gel electrophoresis (SDS-PAGE) and transferred to nitrocellulose. Radiolabeled proteins were visualized and quantitated on a Phosphorimager (Molecular Dynamics). Use of equivalent amounts of flag-tagged ATM or ATR in the different lanes was confirmed by immunoblotting with anti-flag antibody. In some reactions, either supercoiled DNA (pBluescript II KS, Stratagene) or linearized DNA (pBluescript II KS cut with EcoR1) was added ([…]). For endogenous ATM kinase reactions, endogenous ATM was immunoprecipitated from GM0536 lymphhoblasts with ATM monoclonal antibody (D16.11) in M buffer (PBS, 10% glycerol, 0.2% Tween 20, 0.3% NP-40, 1 mM NaF, 1 mM Na3VO4, 1 mM PMSF, 1x protease inhibitor mixture]. After washing with M buffer and kinase buffer, in vitro kinase reactions were carried out according to procedures described above. The DNA-PK in vitro kinase reaction was performed as previously described (Gottlieb and Jackson, 1993), using 20 ng each of DNA-PKcs or DNA-PK (20 ng DNA-PKcs premixed with 20 ng Ku 70/80).

[5] = tested on: p95 Ser343 phosphorylation; experiment: IR-induced phosphorylation of Myc-p95 on Ser343 in co-transfected 293T cells; type: cell-based; conditions: co-transfected with p95 into 293T cells, 5 Gy IR
Text: FIGS. 4A and 4B. In vivo phosphorylation of p95 on ser343 by ATM upon ionizing irradiation. (A) Phosphorylation of p95 on Ser343 by IR in an ATM-dependent manner in vivo. […] The expression of Flag-ATM in each cell lysates was detected with anti-Flag antibody (top panel). Immunoprecipitated Myc-p95 was blotted with anti-a-p95-phosphoserine 343 antibody (middle panel) or anti-Myc antibody (lower panel). (B) Phosphorylation of endogenous p95 on Ser343 in normal cells, but not AT cells, after IR. Normal (WT, GM0536) or AT (GM1526) lymphoblasts were treated with either 0 (−) or 5 (+) Gy IR. Endogenous p95 was immunoprecipitated and blotted with anti-a-p95-phosphoserine 343 antibody (top panel) or anti-p95 antibody (lower panel).
In vivo phosphorylation of p95. Myc-tagged p95 (3 μg) was transiently co-transfected into 293T cells with wtATM, kdATM, or pCDNA3 (7μg) using calcium phosphate. After 2 days, cells were harvested and Myc-p95 was immunoprecipitated, subjected to SDS-PAGE (7.5%), transferred to nitrocelluose, and immunoblotted with α-cMyc antibody or the α-p95-phosphoserine 343 polyclonal mouse antibody. For metabolic labeling, the cells were washed with phosphate free RPMI plus 10% dialyzed fetal bovine serum and incubated for 30 min before irradiation. […] After electrophoresis in 7.5% SDS-PAGE, radiolabeled p95 and ATM were visualized and quantified on a PhosphorImager.

T1 sequence (Q13315 whole entry, the tested form may be a part): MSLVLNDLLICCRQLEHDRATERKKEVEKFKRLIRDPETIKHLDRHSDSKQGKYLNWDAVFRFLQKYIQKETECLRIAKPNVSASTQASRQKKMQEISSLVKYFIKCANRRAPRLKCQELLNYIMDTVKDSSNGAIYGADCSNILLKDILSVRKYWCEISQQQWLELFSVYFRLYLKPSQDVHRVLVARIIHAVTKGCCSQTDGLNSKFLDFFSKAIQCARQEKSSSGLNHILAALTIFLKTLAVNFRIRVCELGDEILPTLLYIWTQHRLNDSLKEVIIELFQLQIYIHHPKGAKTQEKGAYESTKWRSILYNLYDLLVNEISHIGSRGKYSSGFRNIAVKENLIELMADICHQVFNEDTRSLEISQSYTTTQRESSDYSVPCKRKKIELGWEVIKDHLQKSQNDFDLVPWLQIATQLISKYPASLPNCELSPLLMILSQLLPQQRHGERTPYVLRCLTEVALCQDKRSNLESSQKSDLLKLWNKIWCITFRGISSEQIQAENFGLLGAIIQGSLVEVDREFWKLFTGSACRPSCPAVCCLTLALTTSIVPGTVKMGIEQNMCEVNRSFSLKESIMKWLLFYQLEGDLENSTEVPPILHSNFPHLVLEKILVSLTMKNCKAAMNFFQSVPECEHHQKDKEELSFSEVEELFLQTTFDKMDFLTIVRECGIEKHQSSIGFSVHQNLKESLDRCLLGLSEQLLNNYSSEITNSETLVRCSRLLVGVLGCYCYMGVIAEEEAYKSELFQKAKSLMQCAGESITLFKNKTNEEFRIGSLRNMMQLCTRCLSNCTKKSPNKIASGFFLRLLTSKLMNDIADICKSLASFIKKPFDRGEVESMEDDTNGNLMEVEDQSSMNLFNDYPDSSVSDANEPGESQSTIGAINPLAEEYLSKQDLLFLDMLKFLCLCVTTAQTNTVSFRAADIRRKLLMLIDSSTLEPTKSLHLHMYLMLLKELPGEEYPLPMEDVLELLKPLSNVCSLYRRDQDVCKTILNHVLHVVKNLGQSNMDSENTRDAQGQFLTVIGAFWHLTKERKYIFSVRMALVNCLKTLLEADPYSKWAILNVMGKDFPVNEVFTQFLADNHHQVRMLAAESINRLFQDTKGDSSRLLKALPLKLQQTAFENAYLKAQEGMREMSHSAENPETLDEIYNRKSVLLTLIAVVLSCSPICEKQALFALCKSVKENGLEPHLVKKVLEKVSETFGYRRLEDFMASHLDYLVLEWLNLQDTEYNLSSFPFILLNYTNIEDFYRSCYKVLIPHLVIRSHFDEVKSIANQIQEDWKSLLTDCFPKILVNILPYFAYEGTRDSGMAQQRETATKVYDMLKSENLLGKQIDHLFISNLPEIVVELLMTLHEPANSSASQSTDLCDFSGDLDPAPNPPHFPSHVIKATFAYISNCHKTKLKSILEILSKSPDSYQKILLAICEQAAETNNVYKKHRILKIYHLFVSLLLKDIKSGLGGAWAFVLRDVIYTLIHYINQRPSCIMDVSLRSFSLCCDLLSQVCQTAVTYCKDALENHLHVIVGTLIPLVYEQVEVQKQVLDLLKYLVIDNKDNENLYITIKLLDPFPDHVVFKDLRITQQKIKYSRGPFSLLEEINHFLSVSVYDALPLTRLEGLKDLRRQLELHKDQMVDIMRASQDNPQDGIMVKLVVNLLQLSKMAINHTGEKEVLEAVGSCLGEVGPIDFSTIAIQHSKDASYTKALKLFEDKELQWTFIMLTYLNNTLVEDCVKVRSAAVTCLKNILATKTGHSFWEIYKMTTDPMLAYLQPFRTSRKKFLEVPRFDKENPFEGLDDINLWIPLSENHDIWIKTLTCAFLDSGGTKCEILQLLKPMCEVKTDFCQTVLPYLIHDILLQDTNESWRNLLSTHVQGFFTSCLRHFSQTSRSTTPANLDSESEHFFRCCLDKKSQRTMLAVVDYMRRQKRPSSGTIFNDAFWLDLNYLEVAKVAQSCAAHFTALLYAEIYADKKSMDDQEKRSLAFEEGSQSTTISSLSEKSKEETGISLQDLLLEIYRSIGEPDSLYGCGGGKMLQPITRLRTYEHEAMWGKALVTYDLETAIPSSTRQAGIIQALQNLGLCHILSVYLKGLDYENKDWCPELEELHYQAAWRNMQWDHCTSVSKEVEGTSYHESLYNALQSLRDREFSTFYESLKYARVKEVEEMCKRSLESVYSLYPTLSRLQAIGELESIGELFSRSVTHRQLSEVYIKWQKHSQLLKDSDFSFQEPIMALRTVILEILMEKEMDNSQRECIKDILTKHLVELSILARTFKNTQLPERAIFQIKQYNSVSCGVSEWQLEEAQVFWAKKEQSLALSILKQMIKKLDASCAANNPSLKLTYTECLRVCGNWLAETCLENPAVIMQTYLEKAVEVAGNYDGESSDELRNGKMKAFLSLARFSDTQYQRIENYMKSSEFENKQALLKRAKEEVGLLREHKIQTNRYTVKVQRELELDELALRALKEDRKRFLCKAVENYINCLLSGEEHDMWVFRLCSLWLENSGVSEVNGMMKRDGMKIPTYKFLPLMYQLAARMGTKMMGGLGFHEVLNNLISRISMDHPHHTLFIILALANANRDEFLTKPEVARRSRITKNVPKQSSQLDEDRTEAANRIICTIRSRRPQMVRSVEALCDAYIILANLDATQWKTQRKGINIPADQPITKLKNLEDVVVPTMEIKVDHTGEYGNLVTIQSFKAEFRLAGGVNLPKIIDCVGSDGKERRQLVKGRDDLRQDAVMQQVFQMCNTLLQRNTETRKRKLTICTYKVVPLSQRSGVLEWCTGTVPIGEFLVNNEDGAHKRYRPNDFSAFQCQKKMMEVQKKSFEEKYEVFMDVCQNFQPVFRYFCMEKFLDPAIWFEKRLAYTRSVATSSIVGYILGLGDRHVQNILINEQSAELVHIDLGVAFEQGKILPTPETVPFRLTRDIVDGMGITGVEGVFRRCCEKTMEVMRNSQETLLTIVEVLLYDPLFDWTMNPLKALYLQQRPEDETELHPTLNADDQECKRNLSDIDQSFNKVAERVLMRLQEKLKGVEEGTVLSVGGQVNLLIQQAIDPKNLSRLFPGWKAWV

Compound	effect on p53 protein ([1]; lymphoblasts)	Phosphoserine 15 of p53 ([1]; normal lymphoblasts)	Relative Phosphorylation (%) ATM [2] [%]	Relative Phosphorylation (%) ATR [3] [%]	Relative Phosphorylation (%) DNA-PK [4] [%]	IR-induced phosphorylation of p95ser343 [5]
CCCC[C@@H](C=O)NC(=O)[C@H](CC(C)C)NC(=O)[C@H](CC(C)C)NC(C)=O [ALLN, acetyl-Leu-Leu-norleucinal] (Ac-Leu-Leu-[Nle]-aldehyde)	stabilization of p53 protein	undetectable	–	–	–	–
c-ABL: GST-peptide YPGIDLSQVYELLE (SEQ ID NO:23), S446 (not fully specified (N-terminus); also: GST fusion; listed as Homo sapiens)	–	–	<1	8	<1	–
kinase-inactive form of ATM: FLAG-tagged full-length ATM mutant D2870A and N2875K, kinase-dead, dominant-negative	–	–	–	–	–	significantly inhibited
p53 S37: GST-peptide VLSPLPSQAMDDLM (SEQ ID NO:8), p53 serine 37 site (not fully specified (N-terminus); also: GST fusion; listed as Homo sapiens)	–	–	9	31	132	–
p95: GST-peptide TPGPSLSQGVSVDE (SEQ ID NO:10), S343 (not fully specified (N-terminus); also: GST fusion; listed as Homo sapiens)	–	–	19	31	45	–
p115-RhoGEF: GST-peptide RLRPLLSQLGGNSV (SEQ ID NO:27), S899 (not fully specified (N-terminus); also: GST fusion; listed as Homo sapiens)	–	–	<1	15	<1	–
p120E4F: GST-peptide APEPPVSQELPCSR (SEQ ID NO:31), S355 (not fully specified (N-terminus); also: GST fusion; listed as Homo sapiens)	–	–	11	30	2	–
β3A Adaptin: GST-peptide ELKPVLSQG (SEQ ID NO:43), S1092 (not fully specified (N-terminus); also: GST fusion; listed as Homo sapiens)	–	–	6	22	44	–
β-ADAPTIN: GST-peptide CRAPEVSQHVYQAY (SEQ ID NO:28), S935 (not fully specified (N-terminus); also: GST fusion; listed as Homo sapiens)	–	–	5	22	2	–
